The target in data set [1] is Macaca mulatta TLR7 (mmTLR7) ectodomain (Macaca mulatta). The data set can be described thus: cryo-EM structure; mmTLR7 ectodomain in the presence of GUC-v1^PS (mGmUdC^PS, mixture of RR, RS, SR and SS configurations); overall resolution 3.0 Å.
For data set [2] the target is unchanged. The data set can be described thus: cryo-EM structure; TLR7 in complex with mGrUrC^PO; resolution 2.9 Å.
The target is the same in data set [3]. The experiment in a line: cryo-EM structure; TLR7 in complex with mGrArA^PS (mixture of four PS stereoisomers); resolution 2.7 Å.
Data set [4] concerns the target T1, TLR7 WT (mmTLR7) (Macaca mulatta, UniProt B3Y653 27-839).
T1 sequence: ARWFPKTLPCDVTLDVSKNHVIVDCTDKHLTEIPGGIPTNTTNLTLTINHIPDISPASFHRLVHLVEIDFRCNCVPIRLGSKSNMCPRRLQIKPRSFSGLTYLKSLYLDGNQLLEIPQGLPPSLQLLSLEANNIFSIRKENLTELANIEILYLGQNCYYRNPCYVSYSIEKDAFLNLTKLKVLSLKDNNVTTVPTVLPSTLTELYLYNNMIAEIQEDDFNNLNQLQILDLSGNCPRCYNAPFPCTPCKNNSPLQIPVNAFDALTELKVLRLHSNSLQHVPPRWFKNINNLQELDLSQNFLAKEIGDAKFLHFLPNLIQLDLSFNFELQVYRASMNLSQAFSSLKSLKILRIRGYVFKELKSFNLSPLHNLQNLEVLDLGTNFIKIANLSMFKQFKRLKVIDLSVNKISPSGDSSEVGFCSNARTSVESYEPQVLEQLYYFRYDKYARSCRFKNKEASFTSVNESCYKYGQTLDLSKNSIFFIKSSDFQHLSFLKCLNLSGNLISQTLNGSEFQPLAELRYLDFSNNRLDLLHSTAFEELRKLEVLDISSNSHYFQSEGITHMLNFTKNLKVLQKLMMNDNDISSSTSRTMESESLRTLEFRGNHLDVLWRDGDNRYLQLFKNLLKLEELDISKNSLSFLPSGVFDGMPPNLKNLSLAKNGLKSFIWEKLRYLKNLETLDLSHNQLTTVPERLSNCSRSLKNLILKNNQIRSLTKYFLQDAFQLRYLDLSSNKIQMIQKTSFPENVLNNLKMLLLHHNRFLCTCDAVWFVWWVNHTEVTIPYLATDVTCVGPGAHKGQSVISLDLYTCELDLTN
The experiment in a line: SPR; average stated in text; table runs 38±2, 32±2, 30±1, 20±11, 11±1 (mean 26.2); SPR with recombinant TLR7/TLR8; buffer, pH and temperature not in the material. As to conditions: protein: recombinant; chain copies: 2; single-stranded. On the technique in general: In SPR one partner is held on a chip, and binding of the other changes the refractive index at the surface.

Data set [5] deals with T2, TLR8 WT (hTLR8) (human, UniProt Q9NR97 27-827).
T2 sequence: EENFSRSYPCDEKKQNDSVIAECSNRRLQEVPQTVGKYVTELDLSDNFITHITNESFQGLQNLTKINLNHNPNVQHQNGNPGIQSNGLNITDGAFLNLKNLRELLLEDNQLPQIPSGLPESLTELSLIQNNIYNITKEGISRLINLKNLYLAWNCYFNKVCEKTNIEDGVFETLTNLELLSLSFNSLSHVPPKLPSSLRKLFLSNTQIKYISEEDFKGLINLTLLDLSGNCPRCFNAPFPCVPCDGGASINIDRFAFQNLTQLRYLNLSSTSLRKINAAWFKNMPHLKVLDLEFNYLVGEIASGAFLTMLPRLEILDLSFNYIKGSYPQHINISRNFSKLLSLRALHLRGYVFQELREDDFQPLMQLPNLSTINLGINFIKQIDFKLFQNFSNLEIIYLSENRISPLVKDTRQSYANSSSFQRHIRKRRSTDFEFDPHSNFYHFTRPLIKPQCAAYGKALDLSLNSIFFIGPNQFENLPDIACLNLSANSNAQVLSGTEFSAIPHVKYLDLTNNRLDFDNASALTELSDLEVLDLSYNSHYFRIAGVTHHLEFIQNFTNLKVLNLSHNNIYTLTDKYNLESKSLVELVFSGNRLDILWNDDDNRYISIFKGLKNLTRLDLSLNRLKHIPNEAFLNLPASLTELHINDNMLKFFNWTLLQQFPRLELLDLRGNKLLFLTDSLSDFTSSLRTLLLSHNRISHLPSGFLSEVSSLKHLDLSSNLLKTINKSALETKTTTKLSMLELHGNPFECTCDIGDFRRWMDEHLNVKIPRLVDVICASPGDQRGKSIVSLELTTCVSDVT
The experiment in a line: SPR; average; runs 3±1, 4±1, 5±1, 3±0.4, 4±1, 4±1; SPR with recombinant TLR7/TLR8; buffer, pH and temperature not in the material. As to conditions: protein: recombinant; chain copies: 2; single-stranded.

Data set [6] has as its target T2, TLR8 WT (hTLR8). The experiment in a line: SPR; not detected; SPR with recombinant TLR7/TLR8; buffer, pH and temperature not in the material. As to conditions: protein: recombinant; chain copies: 2; single-stranded.
The target of data set [7] is T1, TLR7 WT (mmTLR7). The data set can be described thus: SPR; average; runs 7±2, 7±1, 6±1, 4±2, 4±2; SPR with recombinant TLR7/TLR8; buffer, pH and temperature not in the material. As to conditions: protein: recombinant; chain copies: 2; single-stranded.
A further data set addresses T3, TLR8 F495S (human, UniProt Q9NR97 27-827, F495S).
T3 sequence: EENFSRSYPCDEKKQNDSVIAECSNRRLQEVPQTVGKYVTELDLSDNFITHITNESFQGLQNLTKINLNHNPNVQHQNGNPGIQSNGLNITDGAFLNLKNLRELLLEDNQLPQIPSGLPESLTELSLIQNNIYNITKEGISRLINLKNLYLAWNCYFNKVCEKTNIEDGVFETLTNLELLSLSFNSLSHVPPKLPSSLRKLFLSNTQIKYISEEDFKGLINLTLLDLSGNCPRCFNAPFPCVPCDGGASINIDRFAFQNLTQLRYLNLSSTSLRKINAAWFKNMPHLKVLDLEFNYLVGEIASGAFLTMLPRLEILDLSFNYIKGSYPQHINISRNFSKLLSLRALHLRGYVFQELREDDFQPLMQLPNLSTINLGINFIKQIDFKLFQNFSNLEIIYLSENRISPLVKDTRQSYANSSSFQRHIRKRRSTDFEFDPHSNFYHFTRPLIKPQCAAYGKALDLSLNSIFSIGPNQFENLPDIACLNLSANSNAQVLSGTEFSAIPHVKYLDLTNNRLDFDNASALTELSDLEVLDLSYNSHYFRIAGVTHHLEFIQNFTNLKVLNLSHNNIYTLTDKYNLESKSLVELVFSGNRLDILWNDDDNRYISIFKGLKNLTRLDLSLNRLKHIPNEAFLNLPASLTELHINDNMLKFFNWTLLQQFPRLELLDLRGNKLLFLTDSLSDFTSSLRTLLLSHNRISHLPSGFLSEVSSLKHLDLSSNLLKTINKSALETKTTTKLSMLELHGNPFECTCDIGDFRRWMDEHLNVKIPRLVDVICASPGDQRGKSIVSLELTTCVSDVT
The data set can be described thus: SPR; no binding observed; SPR with recombinant TLR7/TLR8; buffer, pH and temperature not in the material. As to conditions: protein: recombinant; chain copies: 2; single-stranded.

For data set [8], the target named is T1, TLR7 WT (mmTLR7). The data set can be described thus: cryo-EM; stereoisomer mixture, modeled as SS; 2.7 A; buffer, pH and temperature not in the material. As to conditions: protein: recombinant; chain copies: 2; single-stranded.
Data set [9] has as its target T2, TLR8 WT (hTLR8). The experiment in a line: SPR; mean computed from runs 1.8±0.2, 1.8±0.2, 1.5±0.2; SPR with recombinant TLR7/TLR8; buffer, pH and temperature not in the material. As to conditions: protein: recombinant; chain copies: 2; single-stranded.
For data set [10], the target named is T2, TLR8 WT (hTLR8). The data set can be described thus: SPR; control of the nucleoside series; mean computed from runs 1.4±0.9, 1.5±0.09, 1.6±0.1; SPR with recombinant TLR7/TLR8; buffer, pH and temperature not in the material. As to conditions: protein: recombinant; chain copies: 2; single-stranded.
The next data set has as its target T4, TLR8 I403S (human, UniProt Q9NR97 27-827, I403S).
T4 sequence: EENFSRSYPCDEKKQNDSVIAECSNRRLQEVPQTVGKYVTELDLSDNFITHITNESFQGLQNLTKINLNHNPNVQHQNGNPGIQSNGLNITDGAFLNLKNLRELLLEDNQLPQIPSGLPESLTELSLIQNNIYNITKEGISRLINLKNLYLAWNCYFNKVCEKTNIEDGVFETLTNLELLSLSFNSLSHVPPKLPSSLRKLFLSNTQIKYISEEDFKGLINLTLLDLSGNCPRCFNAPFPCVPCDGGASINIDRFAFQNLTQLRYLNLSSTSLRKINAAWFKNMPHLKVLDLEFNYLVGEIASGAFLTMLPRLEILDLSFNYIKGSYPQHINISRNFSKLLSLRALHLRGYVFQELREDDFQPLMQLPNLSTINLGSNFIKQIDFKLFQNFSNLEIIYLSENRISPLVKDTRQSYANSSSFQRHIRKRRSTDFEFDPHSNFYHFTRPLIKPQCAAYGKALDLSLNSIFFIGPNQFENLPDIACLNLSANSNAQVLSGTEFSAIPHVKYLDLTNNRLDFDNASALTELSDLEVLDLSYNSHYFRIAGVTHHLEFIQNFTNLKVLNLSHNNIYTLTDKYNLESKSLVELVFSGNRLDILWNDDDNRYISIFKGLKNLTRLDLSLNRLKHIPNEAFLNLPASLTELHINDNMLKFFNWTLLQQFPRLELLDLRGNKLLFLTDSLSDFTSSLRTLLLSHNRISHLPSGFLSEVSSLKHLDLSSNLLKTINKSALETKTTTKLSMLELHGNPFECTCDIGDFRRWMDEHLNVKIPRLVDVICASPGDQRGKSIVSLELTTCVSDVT
The experiment in a line: SPR; mean computed from runs 7.6±0.5, 9.7±0.9, 7.5±0.3; SPR with recombinant TLR7/TLR8; buffer, pH and temperature not in the material. As to conditions: protein: recombinant; chain copies: 2; single-stranded.

Data set [11] concerns the target T1, TLR7 WT (mmTLR7). The experiment in a line: SPR; negligible binding; SPR with recombinant TLR7/TLR8; buffer, pH and temperature not in the material. As to conditions: protein: recombinant; chain copies: 2; single-stranded.
The target of data set [12] is T2, TLR8 WT (hTLR8). The experiment in a line: SPR; average; runs 5±1, 7±1, 5±1, 12±3, 7±1, 11±2; SPR with recombinant TLR7/TLR8; buffer, pH and temperature not in the material. As to conditions: protein: recombinant; chain copies: 2; single-stranded.
Data set [13] has as its target T2, TLR8 WT (hTLR8). The experiment in a line: SPR; negligible binding; SPR with recombinant TLR7/TLR8; buffer, pH and temperature not in the material. As to conditions: protein: recombinant; chain copies: 2; single-stranded.

By stoichiometry N is commonly meant a count of units in the complex or per binding partner. Usually Kd stands for the equilibrium constant for the complex coming apart.

Take “Macaca mulatta TLR7 (mmTLR7) ectodomain (receptor)”: the stoichiometry N in [1], in data set [2] and in data set [3] was 2 in each case.

B1: GAG-v1 PS (mGmAdG) (XNA)
strand: GAG
modifications: 2'-OMe G1, 2'-OMe A2, DNA G3; phosphorothioate linkages, stereo-random
Regarding B1, the Kd in the data set with TLR7 WT (mmTLR7) [4] came out at 20.2 µM; with TLR8 WT (hTLR8) [5], 4 µM.

B2: GUC-v1 PS (mGmUdC) (XNA)
RNA: GUC
modifications: 2'-OMe G1, 2'-OMe U2, DNA C3; phosphorothioate linkages, stereo-random
For the molecule B2, in the data set with TLR8 WT (hTLR8) [6], the binding result is “no binding”. Moreover, the Kd with TLR7 WT (mmTLR7) [7] was 5.6 µM.

B3: mGrArA PS (XNA)
strand: GAA
modifications: 2'-OMe G1, RNA A2 A3; phosphorothioate linkages, stereo-random
For B3, the binding result with TLR8 F495S is reported as “no binding”; with TLR7 WT (mmTLR7) [8] it was “binds”. Further, the dissociation constant Kd in the data set with TLR8 WT (hTLR8) [9] was found to be 1.7 µM; with TLR8 WT (hTLR8) [10], 1.5 µM; with TLR8 I403S it was 8.27 µM.

B4: GCC-v4 PS (mGdCdC) (XNA)
strand: GCC
modifications: 2'-OMe G1, DNA C2, DNA C3; phosphorothioate linkages, stereo-random
B4: the binding result in the data set with TLR7 WT (mmTLR7) [11] is on record as “no binding”. Further, in the data set with TLR8 WT (hTLR8) [12], the Kd was determined as 8 µM.

B5: GUC-v6 PS (dGdTmC) (XNA)
DNA: GTC
modifications: DNA G1, DNA T2, 2'-OMe C3; phosphorothioate linkages, stereo-random
As for B5, the binding result in the data set with TLR8 WT (hTLR8) [13] and with TLR7 WT (mmTLR7) [11] was “no binding” in each case.

Values taken from publication PMC13043311, “2′-O-Methyl-guanosine RNA fragments antagonize TLR7 and TLR8 to limit autoimmunity”.
